According to the Immune Epitope Database (IEDB):

What follows are sequences tested against HLA-A*24:02 (assay: IEDB peptide-MHC binding, purified MHC/competitive/fluorescence; ≥ and ≤ were set here for values at or beyond the usual limits of such assays). Conditions: source organism: Plasmodium falciparum.
Sequence QYLKDGGFAF has an IC50 of 41.9 nM. Sequence RYNLYDKKL has an IC50 of 172 nM. EYKDEYADI gave an IC50 of 2100 nM. LTIIYIHLF was tested, and the IC50 was 69500 nM. Sequence IYKRELYNI has an IC50 of 86.8 nM. With IYIHLFILN the IC50 was ≥ 142000 nM. PFHKKFISFF gave an IC50 of 35.6 nM. For NYKLGVQYFF, the IC50 was 26300 nM. Sequence NYMGNPWTE has an IC50 of 37900 nM. For YLNKYVYTI, the IC50 was 135 nM. With DFVIIPHYTF the IC50 was 289 nM. Work on IFFNNENSI yielded an IC50 of 56.9 nM. Work on AYVSCYRVSF yielded an IC50 of 56.9 nM. IFHHLIYVL was tested, and the IC50 was 9590 nM. EYPLHQEHTY showed an IC50 of 999 nM. Sequence AYLNKYVYTI has an IC50 of 127 nM. With IKLNIWRTF the IC50 was 1420 nM. YYRSSRGECI was tested, and the IC50 was 175 nM. Work on SYNSIYHKS yielded an IC50 of 57700 nM. SYFTYDSEEY gave an IC50 of 22300 nM. Sequence SYRYDISEEI has an IC50 of 363 nM. In the case of NFGRGQNYW, the IC50 is reported as 228 nM. Work on PYISKYGNKL yielded an IC50 of 180 nM. In the case of KLPLESSTI, the IC50 is reported as 214 nM. GYSTKAENKI gave an IC50 of 1840 nM. KYLFIPSHN was tested, and the IC50 was 6120 nM. With GYNWGNYNTE the IC50 was ≥ 100000 nM. DMKNYGTNLF showed an IC50 of 5300 nM.

What follows are sequences tested against HLA-B*07:02 in the same assay as above. Conditions: source organism: Plasmodium falciparum.
For KPHECVCNKQ, the IC50 was ≥ 100 µM. With KRASHTTPV the IC50 was ≥ 100 µM. With SPLNLQENEM the IC50 was 22.4 µM. With NPQQSVGENG the IC50 was ≥ 100 µM. For MNRTFKKMM, the IC50 was ≥ 100 µM. For NPEDRNSNTL, the IC50 was 2.7 µM. With IPHYTFLDYY the IC50 was ≥ 100 µM. CPRKNLQNA showed an IC50 of 0.484 µM. Work on SPNDNINVT yielded an IC50 of 36.1 µM. With LPLKIENREY the IC50 was ≥ 100 µM. For IPFHKKFISF, the IC50 was 21.9 µM. In the case of LPSAKNNCEY, the IC50 is reported as ≥ 100 µM. In the case of MDMKNYGTNL, the IC50 is reported as ≥ 100 µM. KVKDSWITL gave an IC50 of 0.458 µM. FITSDHLRQM was tested, and the IC50 was ≥ 100 µM. With MPKAVIGSSP the IC50 was ≥ 293 µM. In the case of KPEKYGNTTA, the IC50 is reported as ≥ 836 µM. For FNRIEYHTKI, the IC50 was ≥ 100 µM. In the case of LPIKSTEEEK, the IC50 is reported as ≥ 100 µM. With FVLENGVCI the IC50 was ≥ 284 µM. For KSAFLPTGAF, the IC50 was ≥ 100 µM. For LQKHGFHTM, the IC50 was ≥ 100 µM. KPECVCKENL was tested, and the IC50 was ≥ 206 µM. With FPCSLYKDEI the IC50 was ≥ 100 µM. With ITSDHLRQM the IC50 was ≥ 183 µM. In the case of HPYDINNKND, the IC50 is reported as ≥ 100 µM. Sequence TIIYIHLFIL has an IC50 of 13.7 µM. Sequence RPYISKNDL has an IC50 of 0.244 µM. With MIRIKKKLIL the IC50 was ≥ 100 µM. Sequence RASHTTPVL has an IC50 of 0.258 µM. TPGPLDNTSE was tested, and the IC50 was ≥ 100 µM. IKKKLILTII gave an IC50 of 44.1 µM. RPNDCESVL gave an IC50 of 0.377 µM.

The sequences below were run against HLA-A*01:01 in the same assay as above. Conditions: source organism: Plasmodium falciparum.
With FNDVPIKMEY the IC50 was 0.498 µM. For DTDSNHTPSN, the IC50 was 5.88 µM. With NSILIKPEKY the IC50 was ≥ 109 µM. For HLDFVIIPHY, the IC50 was ≥ 118 µM. With FLDYYKHLSY the IC50 was 0.646 µM. With IPDNDKNSNY the IC50 was 14.7 µM. For LTIIYIHLF, the IC50 was ≥ 100 µM. STEEEKDDIK showed an IC50 of 6.83 µM. NTNGIRYHY gave an IC50 of 4.38 µM. With NSIYHKSSTY the IC50 was ≥ 100 µM. YIDTIKFIHK showed an IC50 of 1.51 µM. In the case of GEEDETHIY, the IC50 is reported as ≥ 261 µM. LTPVATGNQY showed an IC50 of 2.56 µM. For NEDYKNVDY, the IC50 was 8.92 µM. In the case of DSCVPNTNEY, the IC50 is reported as ≥ 100 µM. For NLFEQLSCY, the IC50 was ≥ 100 µM. STCYGNRFNY showed an IC50 of 54 µM. With SIYHKSSTY the IC50 was ≥ 100 µM. With LSDTLQLHED the IC50 was ≥ 100 µM. For SIEIVERSNY, the IC50 was 12.1 µM. In the case of RTFKKMMDEY, the IC50 is reported as ≥ 100 µM. NNEDYKNVDY gave an IC50 of 7.99 µM. For LNDEYIVSY, the IC50 was 28.1 µM. FTYDSEEYY showed an IC50 of 0.136 µM. In the case of NKNDDSYRY, the IC50 is reported as 6.68 µM. In the case of TSSLIKQNKY, the IC50 is reported as 37.1 µM. In the case of ENDYAYLNKY, the IC50 is reported as 42.2 µM. In the case of HREHPKEYEY, the IC50 is reported as 11.1 µM. STDPHTNSNN was tested, and the IC50 was ≥ 100 µM. For SECDIGLIY, the IC50 was ≥ 100 µM. With TLNDEYIVSY the IC50 was ≥ 213 µM. DVSTLNDEY was tested, and the IC50 was 52.2 µM. For ASDQPKQYEQ, the IC50 was ≥ 126 µM.

Each sequence was assayed against HLA-A*03:01 in the same assay as above. Conditions: source organism: Plasmodium falciparum.
Work on KMMDEYNTKK yielded an IC50 of 8.48 µM. GSYIYIDTIK was tested, and the IC50 was ≥ 70.8 µM. For HTKIINDKTK, the IC50 was ≥ 73 µM. In the case of KLKYVTESLK, the IC50 is reported as 3.34 µM. In the case of FLDYYKHLSY, the IC50 is reported as ≥ 100 µM. LSSYVSLPLK gave an IC50 of 0.654 µM. With PVATGNQYLK the IC50 was ≥ 328 µM. STCRFFVCK gave an IC50 of 5.9 µM. Work on ATCKYGFNK yielded an IC50 of 4.75 µM. NSIYHKSSTY was tested, and the IC50 was ≥ 101 µM. In the case of FVCSNRDFLK, the IC50 is reported as ≥ 100 µM. Work on NSYKEWISKK yielded an IC50 of 7.37 µM. For KLNIWRTFQK, the IC50 was 2.5 µM. STCYGNRFNY was tested, and the IC50 was ≥ 100 µM. Work on SIYHKSSTY yielded an IC50 of 5.93 µM. With SILPDINKSK the IC50 was 12.7 µM. In the case of RTFQKDELLK, the IC50 is reported as 24.2 µM. With RTFKKMMDEY the IC50 was ≥ 100 µM. FIPSHNSFIK was tested, and the IC50 was ≥ 100 µM. LICGVSPYK showed an IC50 of 0.419 µM. For NVNFLQYHFK, the IC50 was ≥ 100 µM. KIFTFIENK was tested, and the IC50 was 0.467 µM. SAFLPTGAFK was tested, and the IC50 was 0.345 µM. ILNNSKFNK was tested, and the IC50 was 0.42 µM. With FISDDKDSLK the IC50 was ≥ 697 µM. Work on HLSYNSIYHK yielded an IC50 of 44.2 µM. With VENNFPCSLY the IC50 was ≥ 85.4 µM. In the case of RLSHTDIHK, the IC50 is reported as 1.74 µM. KVKSKCNDIK gave an IC50 of 39.3 µM. CVCTYNYYKK gave an IC50 of 14.4 µM. With DLMNRTFKK the IC50 was ≥ 100 µM. For HIYVQKKVK, the IC50 was 0.897 µM. For TLNDEYIVSY, the IC50 was ≥ 304 µM.

Each sequence was assayed against HLA-A*02:01 in the same assay as above. Conditions: source organism: Plasmodium falciparum.
In the case of KRASHTTPV, the IC50 is reported as ≥ 100 µM. In the case of VQYFFLRPYI, the IC50 is reported as ≥ 100 µM. Sequence ILDMSNEYSL has an IC50 of 6.87 µM. For VLNGNDNTI, the IC50 was 7.31 µM. With KMMDEYNTKK the IC50 was ≥ 511 µM. NLFSSIEIV gave an IC50 of 1.55 µM. FISDDKDSL was tested, and the IC50 was ≥ 336 µM. SLIKQNKYV was tested, and the IC50 was 29.9 µM. Sequence YIFFNNENSI has an IC50 of 2.83 µM. FLPTGAFKA was tested, and the IC50 was 1.39 µM. RQMLYNTFYS was tested, and the IC50 was ≥ 319 µM. Work on HLNNIFHHL yielded an IC50 of 0.225 µM. With KLGVQYFFL the IC50 was 0.805 µM. With YLNKYVYTI the IC50 was 0.342 µM. Sequence KINETYDKV has an IC50 of 10.1 µM. With YIYNQIIWKI the IC50 was 1.95 µM. KVKDSWITL was tested, and the IC50 was 4.01 µM. SLFITSDHL gave an IC50 of 7.12 µM. In the case of YMGNPWTEYM, the IC50 is reported as 21.4 µM. NIFHHLIYV gave an IC50 of 2.29 µM. For DMSNEYSLFI, the IC50 was ≥ 100 µM. In the case of FIPSHNSFI, the IC50 is reported as 31 µM. In the case of FVLENGVCI, the IC50 is reported as 4.17 µM. SVLNGNDNTI was tested, and the IC50 was ≥ 640 µM. With YIHKLILSV the IC50 was 1.15 µM. In the case of AVLATILMV, the IC50 is reported as 23.6 µM. YVGDNINNV showed an IC50 of 1.82 µM. For CLINNSSYI, the IC50 was 3.82 µM. Sequence YIYIDTIKFI has an IC50 of 53.1 µM. In the case of VLLLSAFEFT, the IC50 is reported as ≥ 100 µM. KLPLESSTI showed an IC50 of 2.12 µM. With YLNTNVNDGL the IC50 was 2.83 µM. Sequence SMIKSAFLPT has an IC50 of 12.5 µM. Work on FQYNDDASI yielded an IC50 of 0.275 µM. Sequence KMYSEFKSI has an IC50 of 1.02 µM. With FLQYHFKEL the IC50 was 14.6 µM.

These sequences were tested against HLA-B*44:02 in the same assay as above. Conditions: source organism: Plasmodium falciparum.
With KEIDNDKENI the IC50 was ≥ 100 µM. VQYFFLRPYI was tested, and the IC50 was ≥ 100 µM. With KEYNNSEITI the IC50 was 11 µM. Sequence EELQITQWI has an IC50 of 19.6 µM. GEEKRASHTT gave an IC50 of 10 µM. KEKHLNNIF was tested, and the IC50 was ≥ 100 µM. In the case of NEYSLFITS, the IC50 is reported as ≥ 100 µM. In the case of NEIDKLTFSL, the IC50 is reported as ≥ 332 µM. NENNENNFL was tested, and the IC50 was ≥ 100 µM. With KEMKHIFNRI the IC50 was 39.2 µM. With IEIVERSNY the IC50 was 8.03 µM. DEYIHKLIL was tested, and the IC50 was ≥ 100 µM. FEWHTLSKEY was tested, and the IC50 was 19.1 µM. For KDLSDMTNI, the IC50 was ≥ 100 µM. With NEKNDVKNN the IC50 was ≥ 100 µM. With KEKFYKNNLY the IC50 was ≥ 919 µM. For EEKDDIKNG, the IC50 was ≥ 100 µM. Work on VENNFPCSLY yielded an IC50 of 6.02 µM. EENYRCTQDI was tested, and the IC50 was ≥ 674 µM. With LEFVCSNRDF the IC50 was 7.46 µM. For NDVPIKMEYF, the IC50 was ≥ 100 µM. With NDNNFAECY the IC50 was ≥ 100 µM. With SECDIGLIY the IC50 was ≥ 100 µM. In the case of YENKSLTHYL, the IC50 is reported as ≥ 112 µM.
